IntAct's records for PubMed 16888623

B1: Mucin-1 (Homo sapiens), P15941-12 (parent)
chain: MTPGTQSPFFLLLLLTVLTATTAPKPATVVTGSGHASSTPGGEKETSATQRSSVPSSTEKNAFNSSLEDPSTDYYQELQRDISEMAVCQCRRKNYGQLDIFPARDTYHPMSEYPTYHTHGRYVPPSSTDRSPYEKVSAGNGGSSLSYTNPAVAATSANL

Variants of: B1
Details: with abl1_human ABL1, P00519
abl1_human ABL1, P00519, sequence (P00519 whole entry): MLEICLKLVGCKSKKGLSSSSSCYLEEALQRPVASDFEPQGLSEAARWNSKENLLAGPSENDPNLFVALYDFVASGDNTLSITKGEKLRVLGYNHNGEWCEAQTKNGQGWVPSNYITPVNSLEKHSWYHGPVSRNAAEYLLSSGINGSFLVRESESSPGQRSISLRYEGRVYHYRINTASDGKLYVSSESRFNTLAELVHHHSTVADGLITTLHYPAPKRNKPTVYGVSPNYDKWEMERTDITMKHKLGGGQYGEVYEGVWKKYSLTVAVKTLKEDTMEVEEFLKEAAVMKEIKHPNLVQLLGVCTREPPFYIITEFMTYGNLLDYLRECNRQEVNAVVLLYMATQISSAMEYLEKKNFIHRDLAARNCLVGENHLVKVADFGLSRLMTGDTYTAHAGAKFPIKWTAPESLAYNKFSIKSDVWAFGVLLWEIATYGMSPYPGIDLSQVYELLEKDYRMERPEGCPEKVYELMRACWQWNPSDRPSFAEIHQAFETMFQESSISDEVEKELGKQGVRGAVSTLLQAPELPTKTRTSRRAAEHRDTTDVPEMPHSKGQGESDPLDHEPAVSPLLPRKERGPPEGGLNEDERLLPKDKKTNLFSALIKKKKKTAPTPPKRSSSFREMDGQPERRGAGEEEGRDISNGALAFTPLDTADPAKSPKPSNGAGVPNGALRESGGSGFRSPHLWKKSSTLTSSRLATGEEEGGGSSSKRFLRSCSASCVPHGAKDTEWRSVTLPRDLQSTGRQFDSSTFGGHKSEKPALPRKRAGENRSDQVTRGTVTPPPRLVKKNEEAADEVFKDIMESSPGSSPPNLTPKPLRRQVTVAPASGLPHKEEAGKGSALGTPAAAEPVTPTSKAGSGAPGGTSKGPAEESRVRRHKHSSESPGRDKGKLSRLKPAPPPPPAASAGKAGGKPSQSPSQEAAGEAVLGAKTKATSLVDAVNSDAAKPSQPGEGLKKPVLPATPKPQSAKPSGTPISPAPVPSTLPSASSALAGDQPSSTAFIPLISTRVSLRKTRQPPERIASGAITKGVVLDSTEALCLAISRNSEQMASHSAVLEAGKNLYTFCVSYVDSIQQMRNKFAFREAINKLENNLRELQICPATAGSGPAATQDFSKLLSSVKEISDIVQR
For MTPGTQSPFFLLLLLTVLTATTAPKPATVVTGSGHASSTPGGEKETSATQRSSVPSSTEKNAFNSSLEDPSTDYYQELQRDISEMAVCQCRRKNYGQLDIFPARDTYHPMSEYPTYHTHGRYVPPSSTDRSPYEKVSAGNGGSSLSFTNPAVAATSANL [Y147F], the “effect of a mutation on the interaction” value was “disrupting interaction”.
